Reference: patent publication US20200378979, “FLUORESCENT MEROCYANINE DYES, ASSOCIATED CONJUGATES AND METHODS” (University of Guelph, published 2020)

B1: 4QI-TBA-E:TBA-C9 duplex (dsDNA)
DNA 1: GGTTGGTGTGGTTGGT
DNA 2: ACACCAACC
modifications: 5'-4QI on aptamer strand; extra 3' dT
B2: 4QI-TBA-E (structured_DNA)
DNA: GGTTGGTGTGGTTGGT
modifications: 5'-4QI merocyanine end-label; extra 3' dT

Assays:
thrombin [1] = target: T1, thrombin (Bos taurus, UniProt P00735;P00735 P00735:318-366,P00735:367-625); assay: FP; K+ phosphate buffer pH 7.0; duplex to G4 exchange, 36% fluorescence increase; details: tags: bovine thrombin dry powder, Sigma Aldrich; label: 5'-4QI; partial duplex with 9-mer complement, 3' ssDNA
thrombin [2] = target: T1, thrombin; assay: FP; K+ phosphate buffer pH 7.0, 20 C; Table 6 lists 1.5±0.3 uM; details: tags: bovine thrombin dry powder, Sigma Aldrich; label: 5'-4QI; antiparallel G4

Binder	Kd (thrombin [1]) [µM]	Kd (thrombin [2]) [µM]
B1	1.3	
B2		1.1
